Laboratory results taken from US20260055148A1 (USTAV ORGANICKE CHEMIE A BIOCHEMIE AV CR V V I, published 2026).

Biological target: T1, His-C3d-Avi, biotinylated (human complement C3d with N-terminal His-tag and C-terminal Avi-tag) (human, UniProt P01024 996-1303, site-specific biotinylation of the C-terminal Avi-tag)
T1 construct: domain: C3d; SPR ligand for the ISG65 mutants; not shown: N-terminal His-tag (pET15b); C-terminal Avi-tag
Assay: SPR, biotinylated C3d-Avi immobilised, ISG65 Y293A as analyte

T1 sequence (P01024 996-1303 limits assumed): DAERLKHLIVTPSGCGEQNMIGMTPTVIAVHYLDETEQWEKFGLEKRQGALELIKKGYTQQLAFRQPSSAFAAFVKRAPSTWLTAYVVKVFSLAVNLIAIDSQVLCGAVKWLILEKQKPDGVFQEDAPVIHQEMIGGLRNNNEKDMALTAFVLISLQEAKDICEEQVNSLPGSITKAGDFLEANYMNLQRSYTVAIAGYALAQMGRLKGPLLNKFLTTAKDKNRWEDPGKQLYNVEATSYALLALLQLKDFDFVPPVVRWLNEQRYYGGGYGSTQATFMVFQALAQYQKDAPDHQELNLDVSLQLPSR

B1: His-ISG65 18-363 Y293A (receptor)
chain: MGSSHHHHHHSSGLVPRGSHMLLVIGSEDNRVPGDKKLTKEGAAALCKMKHLADKVAKERSQELKDRTQNFAGYIEFELYRIDYWLEKLNGPKGRKDGYAKLSDSDIEKVKEIFNKAKDGITKQLPEAKKAGEEAGKLHTEVKKAAENARGQDLDDDTAKSTGLYRVLNWYCITKEERHNATPNCDGIQFRKHYLSVNRSAIDCSSTSYEENYDWSANALQVALNSWEDVKPKKLESAGSDKNCNIGQSSESHPCTMTEEWQTPYKETVEKLRELEDAYQRGKKAHDAMLGYANTAAAVNTKVEQEKPLTEVIAAAKEAGKKGAKIIIPAAAPATPTNSTKNDDSAPTEHVDRGIATNETQVEVGID
notes: also called ISG65 Y293A
- binding result: no binding (tested: ISG65 1.5-100 nM)
